Test results taken from patent publication US10925971B2, “Methods of treating PRLR positive breast cancer” (Regeneron Pharmaceuticals, Inc., priority 2016, dated 2021).

T1: native PRLR expressing T47D cells (Homo sapiens, UniProt P16471)
T1 construct: a native PRLR expressing cell line (T47D); endogenous in cells; host or cells: T47D
T1 sequence (P16471 25-622): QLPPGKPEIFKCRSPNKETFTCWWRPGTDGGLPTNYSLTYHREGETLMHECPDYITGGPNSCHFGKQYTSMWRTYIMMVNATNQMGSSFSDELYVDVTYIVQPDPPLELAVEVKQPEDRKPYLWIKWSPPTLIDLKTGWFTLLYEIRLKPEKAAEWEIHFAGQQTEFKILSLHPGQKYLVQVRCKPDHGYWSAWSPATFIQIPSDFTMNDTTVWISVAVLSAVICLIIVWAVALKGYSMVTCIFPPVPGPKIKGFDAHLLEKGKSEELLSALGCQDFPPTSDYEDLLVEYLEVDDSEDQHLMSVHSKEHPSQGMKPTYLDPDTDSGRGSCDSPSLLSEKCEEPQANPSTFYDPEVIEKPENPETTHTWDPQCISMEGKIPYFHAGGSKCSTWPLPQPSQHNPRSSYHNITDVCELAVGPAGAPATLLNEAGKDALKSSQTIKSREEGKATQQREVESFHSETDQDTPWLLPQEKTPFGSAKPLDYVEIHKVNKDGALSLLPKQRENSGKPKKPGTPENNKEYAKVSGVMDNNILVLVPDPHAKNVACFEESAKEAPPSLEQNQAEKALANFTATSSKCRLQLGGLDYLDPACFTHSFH

B1: H1H6765P: fully human anti-PRLR antibody, human IgG1 Fc; HCVR/LCVR SEQ ID NOs 18/26 (antibody, V domains shown)
VH: EVQLVESGGGVVRPGGSLRLSCVGSGFSFDDHGMNWVRQGPGKGLEWVSGFNWNGGSTNYAESVKGRFTISRDNARNSLFLQMNSLRAEDTALYYCVRGRSGWFNDAFDVWGPGTMVTVSS
VL: EIVLTQSPGTLSLSPGERATLSCRASQTINSNYLAWYRQKPGQTPRLLIYGTSSRATGIPDRFSGSGSGTDFSLTISRLEPEDFAVFYCQQYAGLPTFGPGTKVDIK
B2: H1H6782P: fully human anti-PRLR antibody, non-blocking; HCVR/LCVR SEQ ID NOs 66/74 (antibody, V domains shown)
VH: EVQLVESGGGLVQPGRSLRLSCAASGFTFDDYAMHWVRQAPGKGLEWVSGIIWNSGHIGYGDSVKGRFTISRDNAKKSLYLQMNSLRAEDTALYYCARDSGRYQSYFDYWGQGTLVTVSS
VL: DIQMTQSPSTLSASVGDRVTITCRASHIISSWLAWYQQKPGKAPKVLIFKASSLESGVPSRFSGSGSGTEFTLTISSLQPDDFATYYCQQYNTYSRTFGQGTKVEIK
B3: H1H6953N: anti-PRLR antibody, human IgG1 Fc form of H1M6953N of Table 1; HCVR/LCVR SEQ ID NOs 274/282 (antibody, V domains shown)
VH: EVQLLESGGGLVQPGGTLRLSCAASGFTFSAYAMSWVRQAPGKGLEWVSSINVRAGDTYYADSVKGRFTISRDNSKNTLFLLMNSLRAEDTAAYYCAKARYSSNWGFDFWGQGTLVTVSS
VL: DIVMTQSPDSLTVSLGARTTINCQSSQTILHSSNNHNYLAWYQQKPGLPPKLLIYWSSTRESGVPDRFSGSGSGTDFTLTISSLQAEDVAIYYCQQYSNTPYTFGQGTKLEIN

Columns and labels:
[1] = test system: Macaca fascicularis PRLR (mfPRLR.mmh; SEQ ID NO:403); assay: Surface plasmon resonance (Biacore T200), antibody-capture format; assay type: binding; conditions: analyte mfPRLR.mmh
Sequence of Macaca fascicularis PRLR (mfPRLR.mmh; SEQ ID NO:403) (as listed by the source): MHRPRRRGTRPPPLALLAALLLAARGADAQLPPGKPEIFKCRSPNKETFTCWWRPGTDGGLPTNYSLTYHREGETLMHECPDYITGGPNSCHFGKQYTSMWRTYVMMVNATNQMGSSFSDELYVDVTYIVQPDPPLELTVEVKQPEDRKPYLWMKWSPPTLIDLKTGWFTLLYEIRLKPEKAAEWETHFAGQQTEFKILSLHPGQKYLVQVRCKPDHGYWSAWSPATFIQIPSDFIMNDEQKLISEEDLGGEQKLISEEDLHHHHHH
In short: (§1)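 Antibodies (human IgG1 Fc) captured on an anti-human Fc sensor surface; soluble monomeric (.mmh) or dimeric (.mFc) PRLR injected as analyte. ka and kd obtained by fitting to a 1:1 binding model.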

[2] = molecular target: T2, dimeric human PRLR (hPRLR.mFc; SEQ ID NO:402) (Homo sapiens, UniProt P16471); assay: as above; assay type: binding; conditions: analyte hPRLR.mFc
T2 construct: dimeric (hPRLR.mFc)
T2 sequence (P16471 with tags, fused parts or gaps): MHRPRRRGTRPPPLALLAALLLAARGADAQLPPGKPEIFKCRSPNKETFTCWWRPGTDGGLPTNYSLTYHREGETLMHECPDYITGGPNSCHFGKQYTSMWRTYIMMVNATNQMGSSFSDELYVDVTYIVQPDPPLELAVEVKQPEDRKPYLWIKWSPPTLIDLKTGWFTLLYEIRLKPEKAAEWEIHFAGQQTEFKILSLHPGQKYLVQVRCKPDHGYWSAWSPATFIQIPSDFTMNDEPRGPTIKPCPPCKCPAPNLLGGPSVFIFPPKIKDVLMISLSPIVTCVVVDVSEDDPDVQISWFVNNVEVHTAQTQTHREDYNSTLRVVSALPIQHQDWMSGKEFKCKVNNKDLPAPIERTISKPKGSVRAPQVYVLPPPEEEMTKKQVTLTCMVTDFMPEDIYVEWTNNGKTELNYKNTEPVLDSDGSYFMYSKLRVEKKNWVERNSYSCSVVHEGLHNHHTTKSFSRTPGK
In short: as §1

[3] = molecular target: T3, monomeric human PRLR (hPRLR.mmh; SEQ ID NO:401) (Homo sapiens, UniProt P16471); assay: as above; assay type: binding; conditions: analyte hPRLR.mmh
T3 construct: soluble monomeric (hPRLR.mmh); mmh (myc-myc-hexahistidine) (C)
T3 sequence (P16471 with tags, fused parts or gaps): as the sequence (as listed by the source) above, with V105I, T139A, M154I, T187I, I236T counted along it
In short: as §1

[4] = molecular target: T1, native PRLR expressing T47D cells; assay: FACS cell surface binding
In short: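 Binding expressed as mean fluorescence fold change above isotype background, measured by FACS after 30 min on ice with 10 μg/ml antibody and PE-conjugated anti-human detection. T47D, which natively expresses PRLR, tested with engineered HEK293/hPRLR and non-expressing HEK293 cells.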

MCF7/PRLR tumors = assay: MCF7/PRLR breast cancer xenograft, tumor size and tumor growth inhibition; assay type: in vivo, NCr nude mice; conditions: NCr Nude mice, multi-dose 15 mg/kg
In short: (§2)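 MCF7/PRLR cells in mammary fat pad of female NCr nude mice, PC3/PRLR in flank of male SCID, T47D #11 in flank of female CB17 SCID, all with estrogen pellets.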

PC3/PRLR tumors = assay: PC3/PRLR xenograft, tumor size and tumor growth inhibition; assay type: in vivo, SCID mice; conditions: SCID mice, multi-dose 15 mg/kg
In short: as §2

[5] = MCF7/PRLR tumors TRIAL #2, Day 63
[6] = PC3/PRLR tumors TRIAL #2, Day 55
[7] = PC3/PRLR tumors TRIAL #1, Day 63

Row | Molecule | ka ([1]; 25° C.) [M/s] | kd ([1]; 25° C.) [s⁻¹] | ka ([1]; 37° C.) [M/s] | kd ([1]; 37° C.) [s⁻¹] | ka ([2]; 25° C.) [M/s] | kd ([2]; 25° C.) [s⁻¹] | ka ([2]; 37° C.) [M/s] | kd ([2]; 37° C.) [s⁻¹] | ka ([3]; 25° C.) [M/s] | kd ([3]; 25° C.) [s⁻¹] | ka ([3]; 37° C.) [M/s] | kd ([3]; 37° C.) [s⁻¹] | FACS Cell Binding [4] [Fold Above Background] | Average Tumor Growth Inhibition (%) (MCF7/PRLR tumors; [5]) | Final Tumor size mm^3 (mean ± SEM) (MCF7/PRLR tumors; [5]) [mm^3] | Final Tumor size mm^3 (mean ± SEM) (PC3/PRLR tumors; [6]) [mm^3] | Average Tumor Growth Inhibition (%) (PC3/PRLR tumors; [6]) | Final Tumor size mm^3 (mean ± SEM) (MCF7/PRLR tumors; MCF7/PRLR tumors TRIAL #1, Day 52) [mm^3] | Average Tumor Growth Inhibition (%) (PC3/PRLR tumors; [7]) | Final Tumor size mm^3 (mean ± SEM) (PC3/PRLR tumors; [7]) [mm^3]
1 | B1 | 527000 | 0.000134 | 1.06e+06 | 5.37e-05 | 869000 | 3.41e-05 | 801000 | 0.000103 | 907000 | 0.000113 | 1.25e+06 | 0.000366 | 40 | 19 | 737 ± 182 | 1208 ± 72 | – | – | – | –
2 | B2 | 266000 | 0.000279 | 385000 | 0.000767 | 317000 | 7.13e-05 | 598000 | 0.00013 | 360000 | 0.000247 | 557000 | 0.000716 | 43 | 88 | 300 ± 83 | 1154 ± 212 | 6 | – | – | –
3 | B3 | 727000 | 0.000319 | 947000 | 0.00256 | 711000 | 4.77e-05 | 1.47e+06 | 0.00017 | 792000 | 0.000212 | 1.1e+06 | 0.00122 | 40 | – | – | – | – | 421 ± 23 | 0 | 1306 ± 127
